Results reported in EP4624492A1 (Shanghai Hongcheng Biopharmaceutical Co., Ltd., dated 2025).
Read-outs that look alike come from different tables or passages of the source.

Assays:
human CCR8 [1] = biological target: T1, human CCR8 (human, UniProt P51685 1-355); assay: cell-based or functional assay
human CCR8 [2] = biological target: T1, human CCR8; assay: cell-based or functional assay; remark: listed apart in the source
human CCR8 [3] = biological target: T1, human CCR8; assay: cell-based or functional assay; remark: listed apart in the source
human CCR8 [4] = biological target: T1, human CCR8; assay: cell-based or functional assay; remark: listed apart in the source
human CCR8 [5] = biological target: T1, human CCR8; assay: flow cytometry on 293F-hCCR8 cells
human CCR8 [6] = biological target: T1, human CCR8; assay: flow cytometry on CHOK1-hCCR8 cells
cynomolgus CCR8 = biological target: T2, cynomolgus CCR8 (cynomolgus monkey); assay: flow cytometry on 293T-cynoCCR8 cells
T2 construct: whole, on cells; the constructs of the cell lines are not tied to it word for word; also called cynoCCR8

human CCR8 [7] = biological target: T1, human CCR8; assay: flow cytometry on HuT78 cells (endogenous CCR8)
human CCR8 [8] = biological target: T1, human CCR8; assay: flow cytometry, competition with 10 nM AF647-human CCL1 on 293F-hCCR8 cells
human CCR8 [9] = biological target: T1, human CCR8; assay: cell-based or functional assay; remark: listed apart in the source
human CCR8 [10] = biological target: T1, human CCR8; assay: flow cytometry on 293F-hCCR8 cells; remark: listed apart in the source
human CCR8 [11] = biological target: T1, human CCR8; assay: flow cytometry, competition with 10 nM AF647-human CCL1 on 293F-hCCR8 cells; remark: listed apart in the source
human CCR8 [12] = biological target: T1, human CCR8; assay: cell-based or functional assay; remark: listed apart in the source
human CCR8 [13] = biological target: T1, human CCR8; assay: cell-based or functional assay; remark: listed apart in the source

T1 sequence (P51685 whole entry): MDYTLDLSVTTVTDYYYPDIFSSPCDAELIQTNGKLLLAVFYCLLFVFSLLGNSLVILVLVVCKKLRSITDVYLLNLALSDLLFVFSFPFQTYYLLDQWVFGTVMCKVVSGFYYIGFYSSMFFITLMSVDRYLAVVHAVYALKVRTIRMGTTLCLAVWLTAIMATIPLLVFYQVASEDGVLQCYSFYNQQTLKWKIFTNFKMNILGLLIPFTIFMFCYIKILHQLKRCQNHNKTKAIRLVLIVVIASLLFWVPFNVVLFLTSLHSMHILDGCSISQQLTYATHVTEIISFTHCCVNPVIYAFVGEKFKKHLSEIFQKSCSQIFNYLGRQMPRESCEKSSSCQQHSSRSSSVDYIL

IC50 of blockade of CCL1-induced β-arrestin recruitment (human CCR8 [1]) | EC50 of activation of Jurkat-human FcγRIIIa(158V)-NFAT with 293F-hCCR8 target cells (human CCR8 [2]) | EC50 of activation of Jurkat-human FcγRIIIa(158V)-NFAT with CHOK1-hCCR8 target cells (human CCR8 [3]) | EC50 of activation of Jurkat-human FcγRIIIa(158V)-NFAT with 293F-hCCR8 target cells (human CCR8 [4]) | EC50 (human CCR8 [5]) | EC50 (human CCR8 [6]) | EC50 (cynomolgus CCR8) | EC50 (human CCR8 [7]) | IC50 (human CCR8 [8]) | EC50 of activation of Jurkat-human FcγRIIIa(158V)-NFAT with 293F-hCCR8 target cells (human CCR8 [9]) | EC50 (human CCR8 [10]) | IC50 (human CCR8 [11]) | EC50 of activation of Jurkat-human FcγRIIIa(158V)-NFAT with HuT78 target cells (human CCR8 [12]) | EC50 of ADCC effect (lysis%) by human PBMCs on CHOK1-hCCR8 cells (human CCR8 [13]) | Binder
28.1 µg/mL | 0.0421 µg/mL | 0.0265 µg/mL | 0.0133 µg/mL | 0.114 µg/mL | 0.036 µg/mL | 0.0876 µg/mL | 15.2 µg/mL | 0.15 µg/mL | – | – | – | – | – | 559E1B10_hzH1L1_hIgG1 (antibody, Humanized, hIgG1/K) heavy: not shown light: EIVLTQSPATLSLSPGERATLSCRASQSISDYLHWYQQKPGQAPRLLLKYVSQSISGIPARFSGSGSGTDFTLTISSLEPEDFAVYYCQNGHSFPLTFGGGTKVEIKRTVAAPSVFIFPPSDEQLKSGTASVVCLLNNFYPREAKVQWKVDNALQSGNSQESVTEQDSKDSTYSLSSTLTLSKADYEKHKVYACEVTHQGLSSPVTKSFNRGEC
1.72 µg/mL | – | – | – | 0.073 µg/mL | – | 0.0473 µg/mL | – | 0.0513 µg/mL | 0.0216 µg/mL | 0.0273 µg/mL | 0.0295 µg/mL | – | – | 563E10E12_hIgG1 (antibody, also called hIgG1-subclass chimeric antibody 563E10E12) heavy: not shown light: DVVMTQAAFSNPVTLGTSTSISCRSSKSLLHSNGITYLFWYLQKPGQSPQLLIYQMSNLASGVPDRFSGSGSGTDFTLRISRVEAEDVGVYYCAQSLELPLTFGGGTKLEIKRTVAAPSVFIFPPSDEQLKSGTASVVCLLNNFYPREAKVQWKVDNALQSGNSQESVTEQDSKDSTYSLSSTLTLSKADYEKHKVYACEVTHQGLSSPVTKSFNRGEC
1.46 µg/mL | – | 0.0299 µg/mL | 0.0135 µg/mL | 0.103 µg/mL | 0.0376 µg/mL | 0.0227 µg/mL | 0.054 µg/mL | 0.0852 µg/mL | 0.0279 µg/mL | – | – | 0.0409 µg/mL | 0.00471 µg/mL | 563E10E12_hzH1L0_hIgG1 (antibody, Humanized, hIgG1/K) heavy: not shown light: DIVMTQSPLSLPVTPGEPASISCRSSKSLLHSNGITYLFWYLQKPGQSPQLLIYQMSNLASGVPDRFSGSGSGTDFTLKISRVEAEDVGVYYCAQSLELPLTFGGGTKVEIKRTVAAPSVFIFPPSDEQLKSGTASVVCLLNNFYPREAKVQWKVDNALQSGNSQESVTEQDSKDSTYSLSSTLTLSKADYEKHKVYACEVTHQGLSSPVTKSFNRGEC
– | – | – | 0.0009 µg/mL | – | – | – | – | – | – | – | – | 0.011 µg/mL | 0.00031 µg/mL | 563E10E12_hzH1L0_AF (antibody, human IgG1, kappa, afucosylated (expressed in ExpiCHO cells with 2F-peracetyl-fucose)) heavy: not shown light: DIVMTQSPLSLPVTPGEPASISCRSSKSLLHSNGITYLFWYLQKPGQSPQLLIYQMSNLASGVPDRFSGSGSGTDFTLKISRVEAEDVGVYYCAQSLELPLTFGGGTKVEIKRTVAAPSVFIFPPSDEQLKSGTASVVCLLNNFYPREAKVQWKVDNALQSGNSQESVTEQDSKDSTYSLSSTLTLSKADYEKHKVYACEVTHQGLSSPVTKSFNRGEC
1.61 µg/mL | – | – | 0.0089 µg/mL | 0.124 µg/mL | 0.0423 µg/mL | 0.0264 µg/mL | 0.0545 µg/mL | 0.0835 µg/mL | 0.0283 µg/mL | – | – | – | – | 563E10E12_hzH1L1_hIgG1 (antibody, Humanized, hIgG1/K) heavy: not shown light: DVVMTQSPLSLPVTPGEPASISCRSSKSLLHSNGITYLFWYLQKPGQSPQLLIYQMSNLASGVPDRFSGSGSGTDFTLKISRVEAEDVGVYYCAQSLELPLTFGGGTKVEIKRTVAAPSVFIFPPSDEQLKSGTASVVCLLNNFYPREAKVQWKVDNALQSGNSQESVTEQDSKDSTYSLSSTLTLSKADYEKHKVYACEVTHQGLSSPVTKSFNRGEC
